Legend:
Assay in all cases: SPR (Biacore), binding amount relative to IL6R-BF648/IL6R-L = 100
[1] = target: T1, human FcγRIIa type R (human, UniProt P12318 36-217)
T1 construct: also called FcγRIIaR; FcγRIIa(R)
T1 chain: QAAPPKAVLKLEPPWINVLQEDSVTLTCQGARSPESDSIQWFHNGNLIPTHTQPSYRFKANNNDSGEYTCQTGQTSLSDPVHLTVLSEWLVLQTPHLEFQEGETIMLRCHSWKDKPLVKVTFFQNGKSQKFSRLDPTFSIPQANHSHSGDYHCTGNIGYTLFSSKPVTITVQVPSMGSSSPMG

[2] = target: T2, human FcγRIIIa type V (human, UniProt P08637 17-208, limits assumed)
T2 construct: also called FcγRIIIaV; FcγRIIIa(V)
T2 sequence (P08637 other isoform, or with tags, fused parts or gaps limits assumed): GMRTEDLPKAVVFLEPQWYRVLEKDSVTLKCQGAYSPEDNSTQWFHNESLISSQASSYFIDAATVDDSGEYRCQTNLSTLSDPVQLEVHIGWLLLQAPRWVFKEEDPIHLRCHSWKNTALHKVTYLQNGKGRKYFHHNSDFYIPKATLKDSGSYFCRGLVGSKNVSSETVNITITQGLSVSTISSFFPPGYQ

[3] = target: T3, human FcγRIIa type H (human, UniProt P12318 36-217)
T3 construct: also called FcγRIIaH; FcγRIIa(H)
T3 sequence: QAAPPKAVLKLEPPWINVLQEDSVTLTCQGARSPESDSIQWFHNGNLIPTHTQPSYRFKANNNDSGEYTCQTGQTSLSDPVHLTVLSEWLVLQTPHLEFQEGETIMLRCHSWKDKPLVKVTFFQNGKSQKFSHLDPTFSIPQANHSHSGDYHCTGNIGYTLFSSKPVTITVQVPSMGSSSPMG

[4] = target: T4, human FcγRIa (human, UniProt P12314 16-292, limits assumed)
T4 construct: also called CD64
T4 sequence (P12314 16-292 limits assumed): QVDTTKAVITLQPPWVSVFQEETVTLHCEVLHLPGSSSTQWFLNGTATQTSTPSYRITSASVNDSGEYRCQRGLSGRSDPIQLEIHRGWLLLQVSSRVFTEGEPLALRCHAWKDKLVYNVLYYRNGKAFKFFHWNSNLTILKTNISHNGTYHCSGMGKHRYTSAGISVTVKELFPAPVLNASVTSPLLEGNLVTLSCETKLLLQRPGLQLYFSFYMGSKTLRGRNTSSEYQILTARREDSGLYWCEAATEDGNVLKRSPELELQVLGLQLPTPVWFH

[5] = target: T5, human FcγRIIb (human, UniProt P31994 43-217, limits assumed)
T5 construct: also called FcγIIB
T5 sequence: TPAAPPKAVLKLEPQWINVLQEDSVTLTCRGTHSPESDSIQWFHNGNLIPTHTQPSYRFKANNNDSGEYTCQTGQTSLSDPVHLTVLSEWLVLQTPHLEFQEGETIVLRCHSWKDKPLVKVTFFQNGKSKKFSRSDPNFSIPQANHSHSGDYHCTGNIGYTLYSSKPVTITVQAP

Binder | relative binding [1] | relative binding [2] | relative binding [3] | relative binding [4] | relative binding [5]
IL6R-BP078/IL6R-L (antibody, human IgG1, Alteration introduced into IL6R-B3; also called P238D/A330M) heavy: QVQLQESGPGLVKPSETLSLTCAVSGHSISHDHAWSWVRQPPGEGLEWIGFISYSGITNYNPSLQGRVTISRDNSKNTLYLQMNSLRAEDTAVYYCARSLARTTAMDYWGEGTLVTVSSASTKGPSVFPLAPSSKSTSGGTAALGCLVKDYFPEPVTVSWNSGALTSGVHTFPAVLQSSGLYSLSSVVTVPSSSLGTQTYICNVNHKPSNTKVDKKVEPKSCDKTHTCPPCPAPELLGGDSVFLFPPKPKDTLMISRTPEVTCVVVDVSHEDPEVKFNWYVDGVEVHNAKTKPREEQYNSTYRVVSVLTVLHQDWLNGKEYKCKVSNKALPMPIEKTISKAKGQPREPQVYTLPPSRDELTKNQVSLTCLVKGFYPSDIAVEWESNGQPENNYKTTPPVLDSDGSFFLYSKLTVDKSRWQQGNVFSCSVMHEALHNHYTQESLSLSP light: DIQMTQSPSSLSASVGDRVTITCRASQDISSYLNWYQQKPGKAPKLLIYYTSRLHSGVPSRFSGSGSGTDFTFTISSLQPEDIATYYCQQGNTLPYTFGQGTKVEIK | 101 | 91 | 89 | – | –
IL6R-BP911/IL6R-L (antibody, human IgG1, Alteration introduced into IL6R-B3; also called P238D/A330K) heavy: QVQLQESGPGLVKPSETLSLTCAVSGHSISHDHAWSWVRQPPGEGLEWIGFISYSGITNYNPSLQGRVTISRDNSKNTLYLQMNSLRAEDTAVYYCARSLARTTAMDYWGEGTLVTVSSASTKGPSVFPLAPSSKSTSGGTAALGCLVKDYFPEPVTVSWNSGALTSGVHTFPAVLQSSGLYSLSSVVTVPSSSLGTQTYICNVNHKPSNTKVDKKVEPKSCDKTHTCPPCPAPELLGGDSVFLFPPKPKDTLMISRTPEVTCVVVDVSHEDPEVKFNWYVDGVEVHNAKTKPREEQYNSTYRVVSVLTVLHQDWLNGKEYKCKVSNKALPKPIEKTISKAKGQPREPQVYTLPPSRDELTKNQVSLTCLVKGFYPSDIAVEWESNGQPENNYKTTPPVLDSDGSFFLYSKLTVDKSRWQQGNVFSCSVMHEALHNHYTQESLSLSP light: DIQMTQSPSSLSASVGDRVTITCRASQDISSYLNWYQQKPGKAPKLLIYYTSRLHSGVPSRFSGSGSGTDFTFTISSLQPEDIATYYCQQGNTLPYTFGQGTKVEIK | 101 | – | 108 | 52 | 119
IL6R-BP136/IL6R-L (antibody, human IgG1, Alteration introduced into IL6R-B3; also called P238D/K326A) heavy: QVQLQESGPGLVKPSETLSLTCAVSGHSISHDHAWSWVRQPPGEGLEWIGFISYSGITNYNPSLQGRVTISRDNSKNTLYLQMNSLRAEDTAVYYCARSLARTTAMDYWGEGTLVTVSSASTKGPSVFPLAPSSKSTSGGTAALGCLVKDYFPEPVTVSWNSGALTSGVHTFPAVLQSSGLYSLSSVVTVPSSSLGTQTYICNVNHKPSNTKVDKKVEPKSCDKTHTCPPCPAPELLGGDSVFLFPPKPKDTLMISRTPEVTCVVVDVSHEDPEVKFNWYVDGVEVHNAKTKPREEQYNSTYRVVSVLTVLHQDWLNGKEYKCKVSNAALPAPIEKTISKAKGQPREPQVYTLPPSRDELTKNQVSLTCLVKGFYPSDIAVEWESNGQPENNYKTTPPVLDSDGSFFLYSKLTVDKSRWQQGNVFSCSVMHEALHNHYTQESLSLSP light: DIQMTQSPSSLSASVGDRVTITCRASQDISSYLNWYQQKPGKAPKLLIYYTSRLHSGVPSRFSGSGSGTDFTFTISSLQPEDIATYYCQQGNTLPYTFGQGTKVEIK | 159 | – | 103 | 117 | 119
